Experiment [1] addresses Jun (LexA fusion, positive control of the bacterial two-hybrid system). As to the kind of experiment: two-hybrid; bacterial two-hybrid (LexA-WT and LexA-MUT fusions) in E. coli SU202; heterodimerization represses lacZ; quantitative beta-galactosidase activity against the strain with empty vectors pSR658 and pSR659, n = 3.
Experiment [2] has as its target TraM (TraR antiactivator) of plasmid pAoF64/95 (Agrobacterium spp. (plasmid pAoF64/95)). The experiment is described as above.

Values joined by “and” are separate entries in the source; they are usually repeats but may differ in a detail not shown here. Identical values can stand only once.

“Fos (LexA fusion, positive control of the bacterial two-hybrid system) (natural protein)” yielded a fold lower beta-galactosidase activity than the empty-vector control strain in experiment [1] of 52 fold.

As to “TmsPs (short form of TmsP, tra M sequestering protein, of plasmid pAoF64/95) (natural protein)”, the fold lower beta-galactosidase activity than the empty-vector control strain in experiment [2] is 2 fold and 3 fold.

The record behind these values is article PMC6341043.
